Interaction score data for 6 molecules are collected here from publication PMC10397247.

Common to all, as to experiment: two-hybrid library CCmax;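 note: natural log of median RNA to DNA barcode read ratio; higher means stronger binding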
The target of test [1] is T1, 4H55-AA.
T1 chain: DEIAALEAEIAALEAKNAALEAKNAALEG

Test [2] addresses T2, 4H662-AA.
T2 chain: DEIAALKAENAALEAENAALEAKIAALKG

The target in test [3] is T3, APC8191-AA.
T3 chain: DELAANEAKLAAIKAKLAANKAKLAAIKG

The target in test [4] is T4, APC8910-AA.
T4 chain: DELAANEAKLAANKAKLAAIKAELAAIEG

The target of test [5] is T5, APC9096-AA.
T5 chain: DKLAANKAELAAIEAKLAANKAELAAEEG
To be noted: mean of both orientations.

In test [6] the target is T6, APC9319-AA.
T6 chain: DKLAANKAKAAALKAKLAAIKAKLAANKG
The conditions noted are these: mean of both orientations.

Test [7] has as its target T7, APC7524-AA.
T7 chain: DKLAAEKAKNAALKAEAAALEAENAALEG

The target of test [8] is T8, APC8401-AA.
T8 chain: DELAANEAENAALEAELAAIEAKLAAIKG
To be noted: mean of both orientations.

The target of test [9] is T9, APC8516-AA.
T9 chain: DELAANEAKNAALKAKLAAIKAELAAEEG
The conditions noted are these: mean of both orientations.

The target of test [10] is T10, APC9141-AA.
T10 chain: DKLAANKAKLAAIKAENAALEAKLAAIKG
To be noted: mean of both orientations.

Test [11] concerns the target T11, APC9182-AA.
T11 chain: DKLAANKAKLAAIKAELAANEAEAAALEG
To be noted: mean of both orientations.

The target in test [12] is T12, APC9291-AA.
T12 chain: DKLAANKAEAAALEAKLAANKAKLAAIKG
To be noted: mean of both orientations.

Test [13] deals with T13, APC9806-AA.
T13 chain: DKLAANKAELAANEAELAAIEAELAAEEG
The conditions noted are these: mean of both orientations.

Test [14] concerns the target T14, 4H2725-AA.
T14 chain: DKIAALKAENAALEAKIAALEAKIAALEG

Test [15] deals with T15, 4H2865-AA.
T15 chain: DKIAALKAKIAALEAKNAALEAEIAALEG
The conditions noted are these: mean of both orientations.

The target of test [16] is T16, 4H3009-AA.
T16 chain: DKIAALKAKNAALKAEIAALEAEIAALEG
The conditions noted are these: mean of both orientations.

For test [17], the target named is T17, 4H3016-AA.
T17 chain: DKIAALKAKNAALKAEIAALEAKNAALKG
The conditions noted are these: mean of both orientations.

For test [18], the target named is T18, 4H310-AA.
T18 chain: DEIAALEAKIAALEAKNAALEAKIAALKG
To be noted: mean of both orientations.

Test [19] addresses T19, 4H3120-AA.
T19 chain: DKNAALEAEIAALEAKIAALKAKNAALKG
To be noted: mean of both orientations.

In test [20] the target is T20, 4H3130-AA.
T20 chain: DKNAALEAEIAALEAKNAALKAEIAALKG
The conditions noted are these: mean of both orientations.

The target of test [21] is T21, 4H3165-AA.
T21 chain: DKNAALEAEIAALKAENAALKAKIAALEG
The conditions noted are these: mean of both orientations.

In test [22] the target is T22, 4H3381-AA.
T22 chain: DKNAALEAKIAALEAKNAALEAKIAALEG
To be noted: mean of both orientations.

For test [23], the target named is T23, 4H3395-AA.
T23 chain: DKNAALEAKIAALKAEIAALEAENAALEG
To be noted: mean of both orientations.

For test [24], the target named is T24, 4H3410-AA.
T24 chain: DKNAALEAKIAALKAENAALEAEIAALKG
The conditions noted are these: mean of both orientations.

The target in test [25] is T25, 4H3590-AA.
T25 chain: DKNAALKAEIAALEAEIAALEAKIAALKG
To be noted: mean of both orientations.

Test [26] addresses T26, 4H3697-AA.
T26 chain: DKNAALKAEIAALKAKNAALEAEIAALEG

Test [27] deals with T27, 4H3753-AA.
T27 chain: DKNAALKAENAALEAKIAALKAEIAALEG
The conditions noted are these: mean of both orientations.

Test [28] has as its target T28, 4H3865-AA.
T28 chain: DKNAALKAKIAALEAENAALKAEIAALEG
To be noted: mean of both orientations.

The target of test [29] is T29, 4H458-AA.
T29 chain: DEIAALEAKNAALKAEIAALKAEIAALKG
The conditions noted are these: mean of both orientations.

The target in test [30] is T30, 4H485-AA.
T30 chain: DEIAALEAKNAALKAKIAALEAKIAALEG
The conditions noted are these: mean of both orientations.

Test [31] addresses T31, 4H536-AA.
T31 chain: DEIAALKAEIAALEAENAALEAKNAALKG
The conditions noted are these: mean of both orientations.

Test [32] concerns the target T32, 4H570-AA.
T32 chain: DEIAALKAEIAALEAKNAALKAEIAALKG
To be noted: mean of both orientations.

For test [33], the target named is T33, 4H629-AA.
T33 chain: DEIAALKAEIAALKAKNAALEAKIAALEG
The conditions noted are these: mean of both orientations.

Test [34] concerns the target T34, 4H710-AA.
T34 chain: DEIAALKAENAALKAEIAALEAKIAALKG
The conditions noted are these: mean of both orientations.

Test [35] addresses T35, 4H745-AA.
T35 chain: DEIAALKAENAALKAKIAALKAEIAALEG
To be noted: mean of both orientations.

Test [36] concerns the target T36, 4H797-AA.
T36 chain: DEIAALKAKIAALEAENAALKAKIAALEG
To be noted: mean of both orientations.

The target of test [37] is T37, 4H850-AA.
T37 chain: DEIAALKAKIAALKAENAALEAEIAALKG
To be noted: mean of both orientations.

For test [38], the target named is T38, 4H891-AA.
T38 chain: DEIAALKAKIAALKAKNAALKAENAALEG
The conditions noted are these: mean of both orientations.

The target in test [39] is T39, 4H909-AA.
T39 chain: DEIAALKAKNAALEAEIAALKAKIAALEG
To be noted: mean of both orientations.

For test [40], the target named is T40, 4H930-AA.
T40 chain: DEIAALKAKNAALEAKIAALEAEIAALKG
The conditions noted are these: mean of both orientations.

Test [41] deals with T41, 4H94-AA.
T41 chain: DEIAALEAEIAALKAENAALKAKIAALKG
The conditions noted are these: mean of both orientations.

Test [42] concerns the target T42, 4H3449-AA.
T42 chain: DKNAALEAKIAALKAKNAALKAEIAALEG

Test [43] deals with T43, 4H3619-AA.
T43 chain: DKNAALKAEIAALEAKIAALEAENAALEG
The conditions noted are these: mean of both orientations.

In test [44] the target is T44, 4H3629-AA.
T44 chain: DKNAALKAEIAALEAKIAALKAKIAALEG
To be noted: mean of both orientations.

Test [45] deals with T45, 4H3777-AA.
T45 chain: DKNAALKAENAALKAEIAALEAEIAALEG
The conditions noted are these: mean of both orientations.

Test [46] addresses T46, 4H380-AA.
T46 chain: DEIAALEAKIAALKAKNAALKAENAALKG
The conditions noted are these: mean of both orientations.

Test [47] addresses T47, 4H3915-AA.
T47 chain: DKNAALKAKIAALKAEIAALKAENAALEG
The conditions noted are these: mean of both orientations.

In test [48] the target is T48, 4H3974-AA.
T48 chain: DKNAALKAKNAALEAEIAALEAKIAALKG
The conditions noted are these: mean of both orientations.

The target of test [49] is T49, 4H432-AA.
T49 chain: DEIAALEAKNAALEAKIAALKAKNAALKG
To be noted: mean of both orientations.

For test [50], the target named is T50, 4H446-AA.
T50 chain: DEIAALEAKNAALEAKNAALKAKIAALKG
The conditions noted are these: mean of both orientations.

Test [51] concerns the target T51, 4H63-AA.
T51 chain: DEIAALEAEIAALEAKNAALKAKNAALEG

Where two headings read alike, the source gives them in different places.

Regarding DEIAALEAEIAALEAKNAALEAKNAALEG [4H55-AA], the interaction score was -1.54 in test [1] and -1.57 in [2] (mean of both orientations).

Turning to DELAANEAKLAAIKAKLAANKAKLAAIKG [APC8191-AA], the interaction score is -1.48 in test [3], -1.9 in test [4], -1.76 in test [5] and -1.88 in [6].

As to DKLAAEKAKNAALKAEAAALEAENAALEG [APC7524-AA], the interaction score in [7] was -1.65; in [8], -1.27; in test [9] it was -1.83; in test [10], -1.69; in test [11] it was -1.85; in test [12], -1.72. In addition, the interaction score in test [13] was -1.98.

With DKIAALKAENAALEAKIAALEAKIAALEG [4H2725-AA], the interaction score in [14] was 1.47; in test [15], -1.08; in test [16], 1.76; in [17] it was -0.188; in [18], -1.1; in test [19], -1.56. For the same molecule, the interaction score was -0.815 in test [20]; -0.466 in test [21]; -1.94 in test [22]; -1.64 in [23]; -1.72 in test [24]; -0.62 in test [25]. The interaction score was 1.2 in test [26]; -1.26 in test [27]; -1.16 in test [28]; 0.908 in [29]; 1.94 in test [30]; -1.71 in [31]. The interaction score in [32] is -0.95; in test [33] it was -0.516; in test [34], 0.748; in test [35] it was 1.36; in test [36] it was -1.21; in test [37], -0.653. The interaction score in [38] is -1.64; in test [39], -0.311; in test [40], 0.224; in test [41], -0.91.

Take DKNAALEAKIAALKAKNAALKAEIAALEG [4H3449-AA]: the interaction score was -2.07 in test [42]; -1.01 in test [43]; -1.65 in [44]; -2.46 in [45]; -1.96 in test [46]; -1.74 in [47]. For the same molecule, the interaction score is -0.638 in test [48], 0.499 in test [49], -1.41 in [50] and -1.51 in test [51].

In test [2], DEIAALKAENAALEAENAALEAKIAALKG [4H662-AA] had an interaction score of 0.217.
